The series addresses T1, EnrR (crystal) (Edwardsiella piscicida EIB202, UniProt A0AAQ3C0I8 1-90).
T1 sequence: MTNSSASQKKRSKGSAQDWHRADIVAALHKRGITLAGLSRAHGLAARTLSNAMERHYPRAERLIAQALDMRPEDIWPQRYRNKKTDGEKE
Nature of the series: X-ray crystallography.

B1: DNA1 (dsDNA)
DNA 1: CGAAATATCTATAGATATTTCG
DNA 2: CGAAATATCTATAGATATTTCG
On to B1, for which the binding result is reported as “binds”.

Source of the values: article PMC9023278.
